Source: US8785135B2, “Mutant G-protein coupled receptors and methods for selecting them” (Heptares Therapeutics Limited, priority 2007, dated 2014)

B1: C386A: NTR point mutant (protein, UniProt P20789 1-424, looked up, variant C386A)
Neurotensin receptor type 1: MHLNSSVPQGTPGEPDAQPFSGPQSEMEATFLALSLSNGSGNTSESDTAGPNSDLDVNTDIYSKVLVTAIYLALFVVGTVGNSVTAFTLARKKSLQSLQSTVHYHLGSLALSDLLILLLAMPVELYNFIWVHHPWAFGDAGCRGYYFLRDACTYATALNVASLSVERYLAICHPFKAKTLMSRSRTKKFISAIWLASALLAIPMLFTMGLQNRSGDGTHPGGLVCTPIVDTATVKVVIQVNTFMSFLFPMLVISILNTVIANKLTVMVHQAAEQGRVCTVGTHNGLEHSTFNMTIEPGRVQALRHGVLVLRAVVIAFVVCWLPYHVRRLMFCYISDEQWTTFLFDFYHYFYMLTNALFYVSSAINPILYNLVSANFRQVFLSTLAALCPGWRHRRKKRPTFSRKPNSMSSNHAFSTSATRETLY
B2: I116A: NTR point mutant (protein, UniProt P20789 1-424, looked up, variant I116A)
Neurotensin receptor type 1: MHLNSSVPQGTPGEPDAQPFSGPQSEMEATFLALSLSNGSGNTSESDTAGPNSDLDVNTDIYSKVLVTAIYLALFVVGTVGNSVTAFTLARKKSLQSLQSTVHYHLGSLALSDLLALLLAMPVELYNFIWVHHPWAFGDAGCRGYYFLRDACTYATALNVASLSVERYLAICHPFKAKTLMSRSRTKKFISAIWLASALLAIPMLFTMGLQNRSGDGTHPGGLVCTPIVDTATVKVVIQVNTFMSFLFPMLVISILNTVIANKLTVMVHQAAEQGRVCTVGTHNGLEHSTFNMTIEPGRVQALRHGVLVLRAVVIAFVVCWLPYHVRRLMFCYISDEQWTTFLFDFYHYFYMLTNALFYVSSAINPILYNLVSANFRQVFLSTLACLCPGWRHRRKKRPTFSRKPNSMSSNHAFSTSATRETLY
B3: K397A: NTR point mutant (protein, UniProt P20789 1-424, looked up, variant K397A)
Neurotensin receptor type 1: MHLNSSVPQGTPGEPDAQPFSGPQSEMEATFLALSLSNGSGNTSESDTAGPNSDLDVNTDIYSKVLVTAIYLALFVVGTVGNSVTAFTLARKKSLQSLQSTVHYHLGSLALSDLLILLLAMPVELYNFIWVHHPWAFGDAGCRGYYFLRDACTYATALNVASLSVERYLAICHPFKAKTLMSRSRTKKFISAIWLASALLAIPMLFTMGLQNRSGDGTHPGGLVCTPIVDTATVKVVIQVNTFMSFLFPMLVISILNTVIANKLTVMVHQAAEQGRVCTVGTHNGLEHSTFNMTIEPGRVQALRHGVLVLRAVVIAFVVCWLPYHVRRLMFCYISDEQWTTFLFDFYHYFYMLTNALFYVSSAINPILYNLVSANFRQVFLSTLACLCPGWRHRRKARPTFSRKPNSMSSNHAFSTSATRETLY
B4: H393A: NTR point mutant (protein, UniProt P20789 1-424, looked up, variant H393A)
Neurotensin receptor type 1: MHLNSSVPQGTPGEPDAQPFSGPQSEMEATFLALSLSNGSGNTSESDTAGPNSDLDVNTDIYSKVLVTAIYLALFVVGTVGNSVTAFTLARKKSLQSLQSTVHYHLGSLALSDLLILLLAMPVELYNFIWVHHPWAFGDAGCRGYYFLRDACTYATALNVASLSVERYLAICHPFKAKTLMSRSRTKKFISAIWLASALLAIPMLFTMGLQNRSGDGTHPGGLVCTPIVDTATVKVVIQVNTFMSFLFPMLVISILNTVIANKLTVMVHQAAEQGRVCTVGTHNGLEHSTFNMTIEPGRVQALRHGVLVLRAVVIAFVVCWLPYHVRRLMFCYISDEQWTTFLFDFYHYFYMLTNALFYVSSAINPILYNLVSANFRQVFLSTLACLCPGWRARRKKRPTFSRKPNSMSSNHAFSTSATRETLY

Experiment: Thermostability of NTR and mutants (3H-neurotensin binding)
Format: physicochemical
Conditions: heated in the absence of the agonist
Description: FIG. 12 Flow chart showing the two different assay formats of ligand (+) and ligand (−) used to determine receptor thermostability.
• 1. 340 site-directed mutants have been made between residues 61-400 of NTR. • 2. Initially, all of these mutants were assayed for thermostability using an assay measuring ^3H-neurotensin (agonist) binding after the heating step. […] Mutants tested for thermostability by heating in the absence of the agonist were re-tested using a slightly different assay where the mutants were heated in the presence of ^3H-neurotensin (Ligand(+) format in FIG. 12). […] All of these also have increased thermostability. • 5. Preferred combinations are • a. Nag7m F358A+A86L+I260A+F342A Tm 51° C. (neurotensin bound) • b. Nag7n F358A+H103A+I260A+F342A Tm 51° C. (neurotensin bound) • Wildtype NTR has a Tm of 35° C. with neurotensin bound.

Q: With B1 as the molecule, how does the “thermostability, 3H-neurotensin (agonist) binding after the heating step” value (from here on “thermostability, 3H-neurotensin”) read?
A: small but significant increase in thermostability

Q: With B2 as the molecule, how does the “thermostability, 3H-neurotensin” value read?
A: small but significant increase in thermostability

Q: With B3 as the molecule, how does the “thermostability, 3H-neurotensin” value read?
A: small but significant increase in thermostability

Q: With B4 as the molecule, how does the “thermostability, 3H-neurotensin” value read?
A: small but significant increase in thermostability
